From patent US9540424B2, “Serum albumin binding molecules” (BRISTOL-MYERS SQUIBB COMPANY, priority 2010, dated 2017)
“Also recorded” adds a separate entry of the source. Where two headings read alike, the source gives them in different places. No end group written: not given here.

Key:
human NPY Y4 receptor = molecular target: T1, human NPY Y4 receptor (Homo sapiens, UniProt P50391); assay: GTPγS binding functional assay: NPY Y4 receptor membranes; assay type: biochemical
T1 construct: expressed in transfected cells; host or cells: CHO cells (membrane preparation)
Description: Peptide YY (PYY) and pancreatic polypeptide (PP) are native satiety factors secreted from intestine and pancreas, respectively, in response to food ingestion, and are reduced upon fasting. PYY and PP may both be isolated in their full-length form which are 36-residue peptide amides. PYY can also be further cleaved by the enzyme DPPIV into a shorter biologically active form PYY(3-36). Peripheral injection of PYY(3-36) or PP causes reduction in food intake and body weight in animal models and in humans. Patients with morbid obesity have both reduced basal and meal-stimulated PYY(3-36) and/or PP levels. In contrast, patients with anorexia, or weight loss after bypass surgery, have higher than normal plasma PYY(3-36) and/or PP. Agonism of PYY(3-36) and PP are of great therapeutic value in treating obesity and metabolic diseases. NPY Y2 and Y4 are receptors with the highest affinity to PYY(3-36) and PP, respectively. NPY receptors belong to the G-protein coupled receptor family. Upon agonist stimulation, the NPY receptor may stimulate the down-streamed G-protein, exchanging its bound GDP for a GTP. […]
One T150 flask of recombinant CHO cells over-expressing human NPY Y2 or Y4 receptors were grown in F-12 medium (HAM, with L-glutamine) with G418 at 0.5 mg/ml until confluent. […] Protein concentration was measured and aliquots were stored at −80° C. until use. […]

anesthetized rats = assay: Blood pressure in anesthetized rats after intravenous delivery; assay type: in vivo, rat; settings: APLNv4 60 μg/kg, SABA-APLNv2 600 μg/kg
Description: Potential explanations for the absence of activity with the SABA-APLNv2 construct can include lessened potency due to poorer productive collision frequency, steric hindrance, or peptide-PKE annealing.

HEK parental cells = assay: cAMP levels in HEK parental cells; assay type: cell-based, human
RhSA = RhSA (Macaca mulatta, UniProt Q28522); assay: Biacore kinetics of SABAs on immobilized serum albumin: RhSA; assay type: binding, rhesus; settings: Rhesus albumin
Protocol: In addition, binding to albumin was carried out under various pH conditions ranging from pH 5.5 to pH 7.4.

MuSA = MuSA (Mus musculus, UniProt P07724); assay: Biacore kinetics of SABAs on immobilized serum albumin: MuSA; assay type: binding; settings: HBS-P buffer
[1] = cynomolgus monkey, in vivo
Protocol: The pharmacokinetics and bioavailability were also evaluated in a three-week, single-dose pre-toxicology study that included both intravenous and subcutaneous administration arms.
Non-compartmental analyses using WinNonlin software were performed to evaluate pharmacokinetic parameters.

rat serum albumin = rat serum albumin (Rattus norvegicus, UniProt P02770); assay: SABA1.2 binding to rat serum albumin; settings: up to 1 μM
[2] = NOEL of SABA1.2 in cyno monkeys; assay type: in vivo; settings: IV, dosed twice weekly for 5 doses
Protocol: The NOEL (No observed effective level) in cyno monkeys is 30 mg/kg IV when dosed twice weekly for 5 doses. […] Thus, ample safety factors have been taken into consideration for the dosing levels in this study.”

[3] = Preliminary formulation screen and stability of SABA1.2
HSA = HSA (Homo sapiens, UniProt P02768)
Human serum albumin = molecular target: T2, Human serum albumin (Homo sapiens, UniProt P02768); assay: SPR (ProteOn XPR36) binding of SABA-neuropeptide fusions to Human Serum Albumin; settings: 25° C., average of two experiments
T2 construct: purchased Novozymes Recombumin
Protocol: Surface Plasmon Resonance (SPR) is a direct binding technique by which molecular interactions can be observed in real time. For these experiments, SPR binding studies were performed using a ProteOn XPR36 instrument (BioRad Laboratories). The running buffer, phosphate buffered saline 0.05% Tween 20 pH 7.4, was purchased from Teknova (cat #P1192) and all experiments were run at 25° C. Human serum albumin was directly immobilized on a BioRad GLC chip via amine coupling as per manufacturer's guidelines using amine coupling reagents purchased from BioRad Laboratories. Human serum albumin was purchased from Novozymes (Recombumin™). About 5000 resonance units (RU) of human serum albumin were immobilized onto 4 separate lanes of the GLC chip surface. For each analyte, five concentrations ranging from 15.6 nM to 250 nM were injected over the surface at 30 μl/min for 240 seconds. The dissociation was monitored for 600 seconds. The surface was regenerated with 100 mM HCl. The resultant data were fitted to a Langumuir 1:1 binding model using the ProteOn Manager Software. The experiment was repeated with a different concentration range. In this second experiment, 5 concentrations ranging from 500 nM to 32 nM were injected over the surfaces, and the data analyzed as above. The KD is the disassociation constant. Smaller numbers indicate tighter binding to serum albumin. Molecules covalently attached to SABA that bind to serum albumin display longer in vivo pharmokinetic half-lives, as described earlier with respect to SABA-FGF-21 fusions.

Sequence of MuSA (P07724 25-608): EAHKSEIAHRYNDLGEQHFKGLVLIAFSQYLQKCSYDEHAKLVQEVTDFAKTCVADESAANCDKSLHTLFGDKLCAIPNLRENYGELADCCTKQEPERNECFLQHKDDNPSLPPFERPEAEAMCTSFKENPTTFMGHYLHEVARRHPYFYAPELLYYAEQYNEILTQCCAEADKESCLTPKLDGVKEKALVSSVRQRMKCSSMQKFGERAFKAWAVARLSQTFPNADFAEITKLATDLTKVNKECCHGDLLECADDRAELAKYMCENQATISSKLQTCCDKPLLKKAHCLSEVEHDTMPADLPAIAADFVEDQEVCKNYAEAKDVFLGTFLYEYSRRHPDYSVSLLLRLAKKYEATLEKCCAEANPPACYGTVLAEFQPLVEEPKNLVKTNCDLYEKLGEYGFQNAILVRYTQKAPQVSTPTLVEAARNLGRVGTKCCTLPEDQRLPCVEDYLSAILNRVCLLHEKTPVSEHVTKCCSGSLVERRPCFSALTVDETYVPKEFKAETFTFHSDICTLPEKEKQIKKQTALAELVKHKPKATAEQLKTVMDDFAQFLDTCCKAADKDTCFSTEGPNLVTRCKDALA
Sequence of RhSA (Q28522 17-600): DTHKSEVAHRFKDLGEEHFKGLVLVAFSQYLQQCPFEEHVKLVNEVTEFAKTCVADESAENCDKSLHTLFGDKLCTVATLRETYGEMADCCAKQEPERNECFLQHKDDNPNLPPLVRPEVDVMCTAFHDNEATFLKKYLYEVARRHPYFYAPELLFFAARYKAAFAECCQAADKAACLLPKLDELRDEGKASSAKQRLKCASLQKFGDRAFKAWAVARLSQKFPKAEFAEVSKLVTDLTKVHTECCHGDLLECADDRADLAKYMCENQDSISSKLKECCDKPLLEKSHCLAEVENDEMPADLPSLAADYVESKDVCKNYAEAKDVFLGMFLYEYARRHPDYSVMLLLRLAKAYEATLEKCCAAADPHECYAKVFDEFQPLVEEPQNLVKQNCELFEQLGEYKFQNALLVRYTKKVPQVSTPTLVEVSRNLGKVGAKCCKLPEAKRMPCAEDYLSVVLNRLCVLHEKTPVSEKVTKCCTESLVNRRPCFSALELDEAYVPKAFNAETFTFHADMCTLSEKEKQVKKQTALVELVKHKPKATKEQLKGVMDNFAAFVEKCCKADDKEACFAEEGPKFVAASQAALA
T1 sequence (P50391 whole entry): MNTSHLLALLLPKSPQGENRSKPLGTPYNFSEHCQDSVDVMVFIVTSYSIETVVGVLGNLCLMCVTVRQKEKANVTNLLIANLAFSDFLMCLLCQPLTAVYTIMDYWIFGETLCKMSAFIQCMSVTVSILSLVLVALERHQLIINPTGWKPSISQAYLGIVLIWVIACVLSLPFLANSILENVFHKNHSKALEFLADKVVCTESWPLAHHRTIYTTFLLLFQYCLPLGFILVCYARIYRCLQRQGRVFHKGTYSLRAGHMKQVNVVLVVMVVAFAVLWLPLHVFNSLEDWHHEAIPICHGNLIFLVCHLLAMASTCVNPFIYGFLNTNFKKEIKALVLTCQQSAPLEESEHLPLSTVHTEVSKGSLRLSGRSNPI
Sequence of rat serum albumin (P02770 25-608): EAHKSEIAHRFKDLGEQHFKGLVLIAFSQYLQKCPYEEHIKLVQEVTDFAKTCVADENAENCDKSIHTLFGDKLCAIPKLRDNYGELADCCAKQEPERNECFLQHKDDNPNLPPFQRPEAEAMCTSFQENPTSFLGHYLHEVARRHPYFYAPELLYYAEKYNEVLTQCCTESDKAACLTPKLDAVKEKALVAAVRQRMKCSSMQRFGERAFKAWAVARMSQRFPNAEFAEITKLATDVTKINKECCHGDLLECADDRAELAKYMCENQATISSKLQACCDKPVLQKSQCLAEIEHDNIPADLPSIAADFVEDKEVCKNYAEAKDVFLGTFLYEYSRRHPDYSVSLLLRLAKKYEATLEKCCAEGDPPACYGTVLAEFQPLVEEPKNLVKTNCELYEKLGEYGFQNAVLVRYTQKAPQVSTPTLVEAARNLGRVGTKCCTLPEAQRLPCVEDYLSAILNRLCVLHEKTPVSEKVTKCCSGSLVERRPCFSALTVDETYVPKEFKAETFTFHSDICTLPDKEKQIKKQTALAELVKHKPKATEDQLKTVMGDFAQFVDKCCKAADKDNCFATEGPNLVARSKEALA

APLEPMYPGDYATPEQMAQYETQLRRYINTLTRPRY-NH2 [PP Control Peptide]
Efficacy (human NPY Y4 receptor): 100 | EC50 (human NPY Y4 receptor; read-out: Potency (EC50)): 1.7 nM

APLNv4: Apelin peptide variant fused in SABA-APLNv2 (QRPRLSHKGPMPF)
effect on blood pressure (anesthetized rats): robust hypotensive effect

KCNTATCATQRLANFLVRSSNNLGPVLPPTNVGSNTY [Amylin Control Peptide, reference compound]
effect on cAMP levels in the HEK parental cells (HEK parental cells): no significant effect

B1: SABA1.2: “core 1” 10Fn3 comprising an (ED)5 extension; SEQ ID NO: 90 (protein)
chain: MGVSDVPRDLEVVAATPTSLLISWHSYYEQNSYYRITYGETGGNSPVQEFTVPYSQTTATISGLKPGVDYTITVYAVYGSKYYYPISINYRTEIEDEDEDEDED
ka (RhSA; 25° C., HBS-P buffer): 6600 M⁻¹ s⁻¹ | kd (1/s) (RhSA; 25° C., HBS-P buffer): 3.78 ± 0.45E−03 1/s | ka (RhSA; 37° C., HBS-P buffer): 18900 M⁻¹ s⁻¹ | kd (RhSA; 37° C., HBS-P buffer): 0.0185 s⁻¹ | ka (RhSA; pH 5.5, MES buffer): 7570 M⁻¹ s⁻¹ | kd (RhSA; pH 5.5, MES buffer): 0.00272 s⁻¹ | ka (RhSA; pH 7.4, MES buffer): 6160 M⁻¹ s⁻¹ | kd (RhSA; pH 7.4, MES buffer): 0.00295 s⁻¹ | binding to Mouse albumin (MuSA; 25° C., up to 1 μM): No measurable interaction; also recorded: no observable binding | binding to Mouse albumin (MuSA; 37° C.): no observable binding | Bioavailability (F) ([1]; 1 mg/kg): 0.7 | AUCall (hr * nmol/L) ([1]; iv, 10 mg/kg): 5,609,457 hr * nmol/L | Vz ([1]; iv, 10 mg/kg): 0.03 L/kg | beta T1/2 ([1]; iv, 10 mg/kg): 143 h | AUCall (hr * nmol/L) ([1]; sc, 1 mg/kg): 251,339 hr * nmol/L | Vz ([1]; sc, 1 mg/kg): 0.062 L/kg | beta T1/2 ([1]; sc, 1 mg/kg): 134 h | interaction with rat serum albumin (rat serum albumin): No measurable interaction | NOEL (No observed effective level) [2]: 30 mg/kg | protein melting temperature by DSC ([3]; 10 mM succinic acid, 8% sorbitol, 5% glycine, pH 6.0, 1.25 mg/mL protein): 75 °C | level of aggregation after one month ([3]; 4° C.): 1.6% | solubility in the formulation ([3]; 4° C. and ambient temperature, no precipitation or increase in aggregation): at least 20 mg/mL | level of aggregation after one month ([3]; 25° C.): 3.8% | initial aggregate level ([3]; formulation pH 6.0, 5 mg/mL): 1.2% | kd (1/s) (HSA; Human albumin, 25° C., HBS-P buffer): 4.43 ± 0.65E−04 1/s | kd (HSA; Human albumin, 37° C., HBS-P buffer): 0.000815 s⁻¹ | kd (HSA; Human albumin, pH 5.5, MES buffer): 0.00027 s⁻¹ | kd (HSA; Human albumin, pH 7.4, MES buffer): 0.000388 s⁻¹ | ka (HSA; pH 5.5): 9440 M⁻¹ s⁻¹ | ka (HSA; pH 7.4): 9260 M⁻¹ s⁻¹

B2: SABA1-AMYv25: SEQ ID NO: 328; SABA1.7-(ED)5G-Cys conjugated to Maleimide-PEG20-Amylin-CONH2 (conjugate)
chain: MGVSDVPRDLEVVAATPTSLLISWHSYYEQNSYYRITYGETGGNSPVQEFTVPYSQTTATISGLKPGVDYTITVYAVYGSKYYYPISINYRTEIEDEDEDEDEDGC
modifications: Maleimide-PEG20-Amylin-CONH2 conjugated via Cys
effect on cAMP levels in the HEK parental cells (HEK parental cells): no significant effect | Koff (1/s) (Human serum albumin): 2.41 10^−4 1/s | Kon (1/Ms) (Human serum albumin): 9.34 10^3 1/Ms
